Source: the nanobody polyreactivity screen of Harvey et al. (2022)

Assay: yeast display, Sf9 membrane polyspecificity reagent, FACS + sequencing; frameworks hold sequencing errors
Summary of the method: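 Synthetic nanobody libraries on Saccharomyces cerevisiae BJ5465 were galactose-induced for 36–48 hours, stained 1 hour at 4 °C with 10% biotinylated, detergent-solubilized Sf9 membrane reagent and enriched on streptavidin microbeads. FACS then separated cells into low and high (top ~1%) gates by anti-HA (expression) and streptavidin (reagent binding) fluorescence. Genes were colony-PCR amplified, MiSeq 2 × 250 sequenced and CDR-length filtered. A clone's polyreactivity label is that of its gate of origin.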

With “QVQLVESGGGLVQAGGSLRLSCAASGSTFYPNARGWYRQAPGKERELVAAISWSGGRTYYADSEKGRFTISRDNAKNTVYLQMNSLKPEDTAVYYCYRYHRTSGRAKYDYWGQGTQVTVSS” the “polyreactivity (PSR sort gate)” value was “high polyreactivity”.
With “QVQLVESGGGLVQAGGSLRLSCAASGSTFYPYAMGWYRQAPGKERELVAAISSRDGRTYYADSVKGRFTISRDNAKNTVYLQMNSLKPEDTAVYYCAASSFNNGHRYDYWGQGTQVTVSS” the “polyreactivity (PSR sort gate)” value was “high polyreactivity”.
For “QVQLVESGGGLVQAGGSLRLSCAASGSTFYPYAMGWYRQAPGKERELVAAITYSGGSTYYADSVKGRFTISRDNAKNTVYLQMNSLKPDDTAVYYCATPYFSTPRVRGFDYWGQGTQVTVSS”, the “polyreactivity (PSR sort gate)” value was “low polyreactivity”.
For “QVQLVESGGGLVQAGGSLRLSCAASGSTFYPYAMGWYRQAPGKERELVAGISWSGGSTYYADSVKGRFTISRDNAKNTVYLQMNSLKPEDTAVYSCAVDVYWSVIYDYWGQGTQVTVSS”, the “polyreactivity (PSR sort gate)” value was “low polyreactivity”.
With “QVQLVESGGGLVQAGGSLRLSCAASGSTFYPYAMGWYRQAPGTEREFVAAITWSGGSTYYADSVKGRFTISRDNAKNTVYLQMNSLKPDDTAVYYCNAVVATSKYTDYYWGQGTQVTVSS” the “polyreactivity (PSR sort gate)” value was “low polyreactivity”.
With “QVQLVESGGGLVQAGGSLRLSCAASGSTFYPYGMGWYRQAPGNERELVAAITDSGGSTYYADSVKGRFTISRDNAKNTVYLQMNSLKPEDTAVYYCAKTYWYPWRASLWHEYDYWGQGTQVTVSS” the “polyreactivity (PSR sort gate)” value was “low polyreactivity”.
In the case of “QVQLVESGGGLVQAGGSLRLSCAASGSTFYQYAMGWYRQAPGKERELVAVITGSGGSTYYADSVKGRFTISRDNAKNTVYLQMNSLKPEDTAVYYCAAGARYFIYRTTSLGGNYWGQGTQVTVSS”, the “polyreactivity (PSR sort gate)” value is reported as “high polyreactivity”.
For “QVQLVESGGGLVQAGGSLRLSCAASGSTFYRNALGWYRQAPGKERELVARISSRGGRTSYADSVKGRFTISRDNAKNTVYFQMNSLKPEDTAVYYCAADYYVNRIQRYDYWGQGTQVTVSS”, the “polyreactivity (PSR sort gate)” value was “high polyreactivity”.
In the case of “QVQLVESGGGLVQAGGSLRLSCAASGSTFYRNAMGAYRQAPGKDREFVAAISFRGGGTYADSVKGRCTISRDNANNTVYLQMNSLKPEDTAVYYCAADHLSYRRRYEYWGQGTQVTVSS”, the “polyreactivity (PSR sort gate)” value is reported as “low polyreactivity”.
In the case of “QVQLVESGGGLVQAGGSLRLSCAASGSTFYRNAMGWYRPAPGKERELVAAISQRGGRTYYADSVKGRFTISRDNAKNTVYLQMNSLKPEDTAVYYCNKFRGINHLYDMNYWGQGTQVTVSS”, the “polyreactivity (PSR sort gate)” value is reported as “high polyreactivity”.
With “QVQLVESGGGLVQAGGSLRLSCAASGSTFYRNAMGWYRQAPGKEREFVADITLGGGSTYYADSVKGRFTISRDNAKNTVYLQMNSLTPEDTAVYYCAVVYWQLNYDYWGQGTQVTVSS” the “polyreactivity (PSR sort gate)” value was “low polyreactivity”.
For “QVQLVESGGGLVQAGGSLRLSCAASGSTFYRNAMGWYRQAPGKERELVAAINSTDSTNYADSVKGLFTISRDNAKNTVYLQMNSLKPEDTAVYYCAAVGDNLATAEYDYWGQGTQVTLSS”, the “polyreactivity (PSR sort gate)” value was “low polyreactivity”.
With “QVQLVESGGGLVQAGGSLRLSCAASGSTFYRNAMGWYRQAPGKERELVAAISRGSRTYYADSVKGRFTISRDNAKNTVYLQMNSLKPEDTAVYNCAARAGARDTLHDYWGQGTQVTVSS” the “polyreactivity (PSR sort gate)” value was “high polyreactivity”.
For “QVQLVESGGGLVQAGGSLRLSCAASGSTFYRNAMGWYRQAPGKERELVAVISISDGSTYADSVKGRFTISRDNAKNTVYLQMNSLKPEDTAVYYCAKVLNPLDYYDFDYWGQGTQVTVSS”, the “polyreactivity (PSR sort gate)” value was “low polyreactivity”.
With “QVQLVESGGGLVQAGGSLRLSCAASGSTFYRYAMAWYRPAPGKERELVAAITRGGGRTYYADSVKGRFTISRDNAKNTVYLQMNSLKPEDTAVYYCNSASPYYDSWGQGTQVTVSS” the “polyreactivity (PSR sort gate)” value was “high polyreactivity”.
In the case of “QVQLVESGGGLVQAGGSLRLSCAASGSTFYRYAMGWYRQAPGKERELVAAISRGGGRTNYADSVKGRFTISRDNAKNTVYLQMNSLKPEDTAVYYCAADDTYTRYDYWGQGTQVTVSS”, the “polyreactivity (PSR sort gate)” value is reported as “high polyreactivity”.
For “QVQLVESGGGLVQAGGSLRLSCAASGSTFYSNAMGWYRQAPGKERELVAAINYSGGRTYYADSVKGRFTLSRDNAKNTVYLQMNSLKPEDTAVYYCNAQFYNVRGYYIGEYWGQGTQVTVSS”, the “polyreactivity (PSR sort gate)” value was “high polyreactivity”.
In the case of “QVQLVESGGGLVQAGGSLRLSCAASGSTFYSYAIGWYRQAPGKERELVADISYSDGSTYYADSVKGRFTISRDYAKNTVYLQMNSLKPEDTAVYYCDAYALSYFKIMDYWGQGTQVTVSS”, the “polyreactivity (PSR sort gate)” value is reported as “low polyreactivity”.
With “QVQLVESGGGLVQAGGSLRLSCAASGSTFYSYAMGWSRQAPGKERELVARISGSGGSTYYADSVKGRFTISRDTAKNTVYLQMNSLKPEDPAVYYCAADDIYKYYQYYAFPYYRYDYWGQGTQVTVSS” the “polyreactivity (PSR sort gate)” value was “low polyreactivity”.
In the case of “QVQLVESGGGLVQAGGSLRLSCAASGSTFYSYAMGWYRQAPGKERELVAAISWDGGLTYYADSVKGRFTISRDTAKNTVYLQMNSLKPEDTAVYYCAAAYPTYRHYYWGQGTQVTVSS”, the “polyreactivity (PSR sort gate)” value is reported as “low polyreactivity”.
For “QVQLVESGGGLVQAGGSLRLSCAASGSTFYSYAMGWYRQAPGKERELVAAITKGGGSTYYADSVKGRFTISRDNAKNTVYLQMNSLKPEDTAVYYCAAPGLYWYYTRSGYDYWGQGTQVTVSS”, the “polyreactivity (PSR sort gate)” value was “high polyreactivity”.
In the case of “QVQLVESGGGLVQAGGSLRLSCAASGSTFYSYVMGWYRQAPGKERELVAVISNDGSTNYADSVKGRFTISRDNAKNTVYLQMNSLKPEDTAVYYCNAEWTRDFYEYDYWGQGTQVTVSS”, the “polyreactivity (PSR sort gate)” value is reported as “low polyreactivity”.
With “QVQLVESGGGLVQAGGSLRLSCAASGSTFYTNAMGLYRQAPGKERELVAAISWSAGSTYYADSVKGRFTISRDNAKNTVYLQMNSLKPEDTAVYYCAAYYWYKWGYKYGYWGQGTQVTVSS” the “polyreactivity (PSR sort gate)” value was “high polyreactivity”.
In the case of “QVQLVESGGGLVQAGGSLRLSCAASGSTFYTNAMGWYTQAPGKERELVAAISGSGGSTYYADSVKGRFTISRDNAKNTVYLQMNSLKPEDTAVYYCAARSRYYDTRFDYWGQGTQVTVSS”, the “polyreactivity (PSR sort gate)” value is reported as “low polyreactivity”.
For “QVQLVESGGGLVQAGGSLRLSCAASGSTFYTNTMGWYRQAPGKERELVADINGSGGSTYYADSVKGRFTISRDNAKNTVYLQMNSLKPEDTAVYYCAAGSWQVAIRYDYWGQGTQVTVSS”, the “polyreactivity (PSR sort gate)” value was “low polyreactivity”.
With “QVQLVESGGGLVQAGGSLRLSCAASGSTFYTYAMGWYRQAPGKEMELVAAIRSAGSTYYADSVKGRFTISRDNAKNTVYLQMNSLKPEDTAVYYCNTVARSSVGYEYWGQGTQVTVSS” the “polyreactivity (PSR sort gate)” value was “high polyreactivity”.
For “QVQLVESGGGLVQAGGSLRLSCAASGSTFYTYAMGWYRQAPGKERELVAAITSGGSTYYADSVKGRFTISRDNAKNTVYLQMNSLKPEDTAVYYCAARPYPHSAYEGDYWGRGTQVTVSS”, the “polyreactivity (PSR sort gate)” value was “low polyreactivity”.
For “QVQLVESGGGLVQAGGSLRLSCAASGSTFYTYAMGWYRQAPGKERELVAAITYSGGTTYYADSVKGRFTISRDNAKNTVYLQMNSLKPEDTAVYYCNTRSYYYSDDYWGQGTQVTVSS”, the “polyreactivity (PSR sort gate)” value was “low polyreactivity”.
In the case of “QVQLVESGGGLVQAGGSLRLSCAASGSTFYTYDMGWYRQAPGKERELVASITSGGSTNYADSVKGRFTISRDNAKNTVYLQMNSLKPEDTAVYYCAVGTYTIYSGTLYDYKYYWGQGTQVTVSS”, the “polyreactivity (PSR sort gate)” value is reported as “low polyreactivity”.
In the case of “QVQLVESGGGLVQAGGSLRLSCAASGSTFYTYTMGWYRQAPGKERELVAAISSRGVSTYYADSVKGRFTISRDNAKNTVYLQMNSLKPEDTAVYYCAVSRIVDFGQKMYYWGQGTQVTVSS”, the “polyreactivity (PSR sort gate)” value is reported as “high polyreactivity”.
For “QVQLVESGGGLVQAGGSLRLSCAASGSTFYTYTMGWYRQAPGKERELVAAISSSGGDTYYADSVKGRFTISRDNAKNTVYLQMNSLKPEDTAVYYCAALGAFPSLEFDYWGQGTQVTVSS”, the “polyreactivity (PSR sort gate)” value was “low polyreactivity”.
In the case of “QVQLVESGGGLVQAGGSLRLSCAASGSTFYVNAMGSYRKAPGKEMEFVAAITWNSGSTYYADSVKGRFTISRDNANYTVYLQMNSLKPEDTAVYYCAAVLSVRDYGYDYWGQGTQVTVSS”, the “polyreactivity (PSR sort gate)” value is reported as “low polyreactivity”.
